Source: paper PMC12249877, “AlphaFold 3-Assisted Deciphering of the DNA Recognition by DREB1 Transcription Factors in Rice”

Legend:
OsDREB1A-DBD F43G = OsDREB1A-DBD F43G (Oryza sativa (rice), UniProt Q64MA1 32-103, F43G); assay: EMSA; 0.6 uM protein; EMSA: 0.01 uM FAM-dsDNA, 50 mM NaH2PO4, 150 mM NaCl, 5 mM DTT, 2% glycerol, pH 6.8, 15 min, room temperature; 12% native PAGE in 0.5x TBE; details: protein: recombinant; tags: C-terminal His-tag (pET28); blunt
OsDREB1A-DBD V64A = OsDREB1A-DBD V64A (Oryza sativa (rice), UniProt Q64MA1 32-103, V64A); assay: as above; details: protein: recombinant; tags: C-terminal His-tag (pET28); blunt
Sequence of OsDREB1A-DBD V64A (Q64MA1 32-103 V64A): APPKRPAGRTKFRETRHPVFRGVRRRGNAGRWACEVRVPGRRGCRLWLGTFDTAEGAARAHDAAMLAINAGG

Sequence of OsDREB1A-DBD F43G (Q64MA1 32-103 F43G): as the sequence (Q64MA1 32-103 V64A) above, with F12G, A33V counted along it

B1: CRT (dsDNA)
DNA 1: GTACGCCGACACT
DNA 2: AGTGTCGGCGTAC
binding result (OsDREB1A-DBD F43G): binds | binding result (OsDREB1A-DBD V64A): binds
